Measured values taken from patent US9658208B2, “Methods and G proteins for screening and identifying ligands of G protein-coupled receptors” (Fred Hutchinson Cancer Research Center, priority 2011, dated 2017).

Target: T1, sweet receptor heterodimer (T1R2/T1R3) (Mus musculus, UniProt Q925D8+Q925I4)
T1 construct: expressed in transfected cells; host or cells: HEK-293
T1 sequence (Q925I4 20-843): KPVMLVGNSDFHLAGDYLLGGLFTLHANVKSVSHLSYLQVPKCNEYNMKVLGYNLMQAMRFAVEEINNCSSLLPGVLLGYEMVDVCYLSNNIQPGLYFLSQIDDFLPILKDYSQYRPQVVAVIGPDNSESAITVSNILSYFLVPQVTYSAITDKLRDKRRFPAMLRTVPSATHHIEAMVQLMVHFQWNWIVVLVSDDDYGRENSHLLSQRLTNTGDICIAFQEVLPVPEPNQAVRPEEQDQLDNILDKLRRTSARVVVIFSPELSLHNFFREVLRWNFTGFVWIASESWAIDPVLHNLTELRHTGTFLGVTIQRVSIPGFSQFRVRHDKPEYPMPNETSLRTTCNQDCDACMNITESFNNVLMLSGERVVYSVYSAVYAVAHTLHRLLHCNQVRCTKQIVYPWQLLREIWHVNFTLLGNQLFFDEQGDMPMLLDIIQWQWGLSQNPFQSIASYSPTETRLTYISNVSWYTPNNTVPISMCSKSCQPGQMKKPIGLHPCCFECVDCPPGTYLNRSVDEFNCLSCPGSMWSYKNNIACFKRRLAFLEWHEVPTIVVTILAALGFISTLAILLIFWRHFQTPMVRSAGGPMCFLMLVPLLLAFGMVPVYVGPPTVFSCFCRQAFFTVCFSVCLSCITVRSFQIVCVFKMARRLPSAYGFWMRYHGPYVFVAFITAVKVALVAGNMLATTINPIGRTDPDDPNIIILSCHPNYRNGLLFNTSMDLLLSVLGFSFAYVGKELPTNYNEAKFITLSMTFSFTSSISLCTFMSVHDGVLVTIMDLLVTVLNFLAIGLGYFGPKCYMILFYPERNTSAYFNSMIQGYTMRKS
T1 sequence (Q925D8 21-858): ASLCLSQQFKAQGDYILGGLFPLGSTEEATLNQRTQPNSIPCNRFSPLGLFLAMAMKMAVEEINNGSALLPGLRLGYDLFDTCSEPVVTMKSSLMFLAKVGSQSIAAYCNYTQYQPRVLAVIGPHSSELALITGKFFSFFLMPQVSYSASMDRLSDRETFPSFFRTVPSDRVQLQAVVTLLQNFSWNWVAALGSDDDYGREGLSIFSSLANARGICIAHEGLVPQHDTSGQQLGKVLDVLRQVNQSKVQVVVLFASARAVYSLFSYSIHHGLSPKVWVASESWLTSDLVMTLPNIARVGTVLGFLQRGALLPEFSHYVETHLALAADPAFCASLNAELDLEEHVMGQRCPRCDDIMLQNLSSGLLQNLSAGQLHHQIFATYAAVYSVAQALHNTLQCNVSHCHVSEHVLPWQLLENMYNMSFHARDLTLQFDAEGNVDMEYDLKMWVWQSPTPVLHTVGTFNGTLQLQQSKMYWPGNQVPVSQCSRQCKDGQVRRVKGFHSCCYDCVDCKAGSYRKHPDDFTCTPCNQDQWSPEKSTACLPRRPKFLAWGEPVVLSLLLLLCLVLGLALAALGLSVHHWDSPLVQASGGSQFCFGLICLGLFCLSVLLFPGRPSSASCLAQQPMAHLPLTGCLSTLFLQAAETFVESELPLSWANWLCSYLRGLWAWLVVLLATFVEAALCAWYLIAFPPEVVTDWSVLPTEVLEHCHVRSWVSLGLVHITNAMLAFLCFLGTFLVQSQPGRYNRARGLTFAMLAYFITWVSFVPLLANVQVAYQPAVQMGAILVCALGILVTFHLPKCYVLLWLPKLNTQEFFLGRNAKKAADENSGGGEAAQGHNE
Assay: CRE-SEAP reporter gene assay, coupling with sweet receptor
Assay type: cell-based
Details: HEK-293 cells cotransfected with T1R2 and T1R3; 5 mM saccharin
Description: The GPCRs examined were those that couple with Gαi/Gαo subunits (serotonin 1b, neuropeptide Y1, leukotriene B4, and dopamine D4), Gαq (GNRH, UDP, and calcium-sensing receptors), and the orphan mammalian sweet taste receptor complex (T1R2 and T1R3) with unknown coupling preference. The Gαs-based chimeric G proteins examined in this example were Gαs-Gαi-5, Gαs-Gαt-13 (SEQ ID NO: 3), Gαs-Gαo-13 (SEQ ID NO: 4), Gαs-Gαi-13 (SEQ ID NO: 5), Gαs-Gαz-6 (SEQ ID NO: 18), Gαs-Gα15-13 (SEQ ID NO: 7), Gαs-Gαk-5 (SEQ ID NO: 2), and Gαs-Gαq-13 (SEQ ID NO: 8). The chimeric G protein constructs were prepared as described herein. For the coupling assay, HEK-293 cells were cotransfected with each of the Gαs-based chimeric G protein constructs of interest together with the CRE-SEAP reporter gene construct and a cDNA encoding the GPCR to be tested. The transfected cells were cultured in the presence or absence of a GPCR ligand and then assayed for SEAP activity.
Also tested was whether the chimeric G proteins disclosed herein can be used to detect the activation of GPCRs whose G protein coupling preference is unknown, as is the case with orphan GPCRs. […]
Following transfection, the cells were maintained for 48 hours in 200 ul serum free media containing GPCR ligand. […] Fluorescence was then measured using a CytoFluor 4000 multi well plate reader (Applied Biosystems).

B1: Gαs-Gαt-13: Gαs-based chimeric G protein, final 13 C-terminal amino acids substituted with those of Gαt (protein)
chain: MGCLGNSKTEDQRNEEKAQREANKKIEKQLQKDKQVYRATHRLLLLGAGESGKSTIVKQMRILHVNGFNGEGGEEDVPDYASNSDGEKATKVQDIKNNLKEAIETIVAAMSNLVPPVELANPENQFRVDYILSVMNVPNFDFPPEFYEHAKALWEDEGVRACYERSNEYQLIDCAQYFLDKIDVIKQADYVPSDQDLLRCRVLTSGIFETKFQVDKVNFHMFDVGGQRDERRKWIQCFNDVTAIIFVVASSSYNMVIREDNQTNRLQEALNLFKSIWNNRWLRTISVILFLNKQDLLAEKVLAGKSKIEDYFPEFARYTTPEDATPEPGEDPRVTRAKYFIRDEFLRISTASGDGRHYCYPHFTCAVDTENIRRVFNDCRDIIIKENLKDCGLF
modifications: Chimeric protein
notes: Gαs-based chimeric G protein, final 13 C-terminal amino acids substituted with those of Gαt
Question: Which “increase in SEAP activity” value does the source give for B1 here?
Answer: about two
